# Experimental data reported in article PMC9411592.
# Where two headings read alike, the source gives them in different places.
# How the values were obtained:
# [1] = target: N-terminal Flag-tagged LRRC33 with its C-terminal transmembrane domain substituted with that of GARP (WT); assay: flow cytometry on cells; details: for response: n = 3, mean ± s.d., read off a plot
# [2] = target: N-terminal Flag-tagged LRRC33 with its C-terminal transmembrane domain substituted with that of GARP (WT); assay: flow cytometry on cells; details: n = 3, mean ± s.d., read off a plot
# [3] = target: L-TGF-β1 C4S/R249A (the 'WT' of the SPR assay) (human); assay: SPR; Biacore T200, 25 °C; L-TGF-β1 (C4S/R249A, or + RGEGATG) immobilised on a CM5 chip by amine coupling; integrin headpieces injected at 20 μl/min in 20 mM HEPES pH 7.5, 150 mM NaCl, 1 mM MgCl2, 1 mM CaCl2; 1:1 Langmuir model
# [4] = target: L-TGF-β1 WT with the furin cleavage site between LAP and the growth factor replaced with an HA tag (UniProt P01137); assay: flow cytometry on cells
# [5] = Expi293F cells co-transfected with L-TGF-β1 and LRRC33, anti-HA staining
Substance,response ([1]; parent: est. 21000) [MFI],other: percentage of L-TGF-β+ (anti-HA+) subset [1] [%],further results
L-TGF-β1 WT with the furin cleavage site between LAP and the growth factor replaced with an HA tag (from UniProt P01137) K309R,15000,–,–
L-TGF-β1 WT with the furin cleavage site between LAP and the growth factor replaced with an HA tag (from UniProt P01137) K309T; H317L,–,15.2,response ([2]; parent: est. 21000): 3400 MFI
L-TGF-β1 WT with the furin cleavage site between LAP and the growth factor replaced with an HA tag (from UniProt P01137) P296A,16000,–,–
αVβ8-IgG1 Fc (heterotetramer of αVβ8 linked by the IgG1 Fc fragment on the C-terminus of β8) (Fc fusion),–,–,Kd [3]: 5.75 nM
L-TGF-β1 WT with the furin cleavage site between LAP and the growth factor replaced with an HA tag (from UniProt P01137) L303S,25000,–,–
L-TGF-β1 WT with the furin cleavage site between LAP and the growth factor replaced with an HA tag (from UniProt P01137) W301A,–,–,"other: percentage of L-TGF-β+ (anti-HA+) subset [1, 5]: 28.7%; response ([1]; Expi293F cells, parent: est. 22000): 5300 MFI"
integrin αVβ8-6DLL headpiece (the disulfide-linked loop of β8 substituted by that of β6) (complex),–,–,Kd [3]: 19.8 nM
L-TGF-β3 WT with HA tag in place of the furin cleavage site (from UniProt P10600) R328W; T336K; L344H,–,21.5,response ([2]; parent: est. 2700): 5500 MFI
L-TGF-β2 WT with HA tag in place of the furin cleavage site (from UniProt P61812) I350H,–,44.6,response ([2]; parent: est. 2800): 11000 MFI
L-TGF-β1 WT with the furin cleavage site between LAP and the growth factor replaced with an HA tag (from UniProt P01137) I300L,16000,–,–
L-TGF-β1 WT with the furin cleavage site between LAP and the growth factor replaced with an HA tag (from UniProt P01137) L303A,26000,–,–
L-TGF-β1 WT with the furin cleavage site between LAP and the growth factor replaced with an HA tag (from UniProt P01137) H317I,2800,9.58,response ([2]; parent: est. 21000): 3600 MFI
L-TGF-β1 WT with the furin cleavage site between LAP and the growth factor replaced with an HA tag (from UniProt P01137) W301R,14000,–,–
L-TGF-β1 WT with the furin cleavage site between LAP and the growth factor replaced with an HA tag (from UniProt P01137) W301R; K309T; H317L,–,12.3,response ([2]; parent: est. 21000): 3500 MFI
L-TGF-β1 WT with the furin cleavage site between LAP and the growth factor replaced with an HA tag (from UniProt P01137) Y307H,28000,–,–
L-TGF-β1 WT with the furin cleavage site between LAP and the growth factor replaced with an HA tag (from UniProt P01137) Q306T,13000,–,–
N-terminal Flag-tagged LRRC33 with its C-terminal transmembrane domain substituted with that of GARP (WT) Y174R,–,–,"other: percentage of L-TGF-β+ (anti-HA+) subset [4, 5]: 23.1%; response ([4]; Expi293F cells, n = 3, mean ± s.d., parent: est. 22000, read off a plot): 4000 MFI"
L-TGF-β1 WT with the furin cleavage site between LAP and the growth factor replaced with an HA tag (from UniProt P01137) H317L,6000,–,–
L-TGF-β3 WT with HA tag in place of the furin cleavage site (from UniProt P10600) T336K; L344H,–,14.4,response ([2]; parent: est. 2700): 4000 MFI
L-TGF-β1 WT with the furin cleavage site between LAP and the growth factor replaced with an HA tag (from UniProt P01137) K309T,5500,–,–
